In patent US20240301023A1 (PREVECEUTICAL MEDICAL, published 2024):
Square brackets hold non-standard residues; d marks the D form. Phe(4-NO2) = N[C@@H](Cc1ccc([N+](=O)[O-])cc1)C(=O)O; Phe(4-Cl) = N[C@@H](Cc1ccc(Cl)cc1)C(=O)O; GABA = NCCCC(=O)O; Sar = CNCC(=O)O

B1: SEQ ID NO. 18: NH2-Tyr-Sar-(4-NO2)Phe-Leu-Arg-NMA-NH2 (peptide)
peptide: H-Y[Sar][Phe(4-NO2)]LRX-NH2
modifications: not fully specified (residue 6); printed as NH2-Tyr-Sar-(4-NO2)Phe-Leu-Arg-NMA-NH2
B2: SEQ ID NO. 1: NH2-Tyr-Gaba-Phe-Leu-Arg-Arg-NH2 (peptide)
peptide: H-Y[GABA]FLRR-NH2
SMILES: CC(C)C[C@H](NC(=O)[C@H](Cc1ccccc1)NC(=O)CCCNC(=O)[C@@H](N)Cc1ccc(O)cc1)C(=O)N[C@@H](CCCNC(=N)N)C(=O)N[C@@H](CCCNC(=N)N)C(N)=O
B3: SEQ ID NO. 9: NH2-Phe-Sar-(4-NO2)Phe-Leu-DArg-DArg-NH2 (peptide)
peptide: H-F[Sar][Phe(4-NO2)]L[dR][dR]-NH2
SMILES: CC(C)C[C@H](NC(=O)[C@H](Cc1ccc([N+](=O)[O-])cc1)NC(=O)CN(C)C(=O)[C@@H](N)Cc1ccccc1)C(=O)N[C@H](CCCNC(=N)N)C(=O)N[C@H](CCCNC(=N)N)C(N)=O

Each binder was assayed against T1, Kappa opioid receptor (KOR) (Homo sapiens (Human), UniProt P41145 1-380) (assay: cell-based or functional assay).
T1 sequence (P41145 whole entry, form in doubt): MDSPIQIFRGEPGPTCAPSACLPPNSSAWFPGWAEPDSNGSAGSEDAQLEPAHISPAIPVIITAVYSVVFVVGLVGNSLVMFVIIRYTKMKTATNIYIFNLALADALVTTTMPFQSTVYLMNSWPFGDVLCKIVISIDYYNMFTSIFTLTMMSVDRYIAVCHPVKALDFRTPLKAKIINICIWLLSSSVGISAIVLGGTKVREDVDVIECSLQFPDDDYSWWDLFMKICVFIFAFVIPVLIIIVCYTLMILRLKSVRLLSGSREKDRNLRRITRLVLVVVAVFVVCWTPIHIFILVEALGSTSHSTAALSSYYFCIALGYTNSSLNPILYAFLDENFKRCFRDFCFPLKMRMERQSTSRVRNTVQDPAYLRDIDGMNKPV

Row | Binder | Activity (EC50, nM), cAMP assay [nM]
1 | H-Y[Sar]FLR[dR]-NH2 [SEQ ID NO. 3: NH2-Tyr-Sar-Phe-Leu-Arg-DArg-NH2] | 74.7

These binders were tested against Mu opioid receptor (MOR) (assay: cell-based or functional assay).
Mu opioid receptor (MOR), sequence (P35372 whole entry): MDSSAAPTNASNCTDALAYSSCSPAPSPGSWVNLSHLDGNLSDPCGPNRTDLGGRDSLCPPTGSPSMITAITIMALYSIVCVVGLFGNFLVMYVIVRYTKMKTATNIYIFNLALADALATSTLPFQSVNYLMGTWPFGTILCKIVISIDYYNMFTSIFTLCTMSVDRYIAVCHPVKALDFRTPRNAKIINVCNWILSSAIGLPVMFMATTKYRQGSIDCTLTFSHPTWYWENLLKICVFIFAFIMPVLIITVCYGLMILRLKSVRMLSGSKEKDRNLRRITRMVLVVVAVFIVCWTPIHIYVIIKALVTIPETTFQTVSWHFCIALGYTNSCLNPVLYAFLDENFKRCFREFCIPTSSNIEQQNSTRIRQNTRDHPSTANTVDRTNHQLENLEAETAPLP

Row | Binder | Activity (EC50, nM), cAMP assay [nM]
2 | H-Y[Sar][Phe(4-NO2)]LR[dR]-NH2 [SEQ ID NO. 4: NH2-Tyr-Sar-(4-NO2)Phe-Leu-Arg-DArg-NH2] | > 10000
3 | H-Y[Sar][Phe(4-Cl)]LR[dR]IR-NH2 [SEQ ID NO. 20: NH2-Tyr-Sar-(4-Cl)Phe-Leu-Arg-DArg-Ile-Arg-NH2] | > 10000
4 | B1 | > 10000
5 | H-Y[Sar][Phe(4-Cl)]LR[dR]I[dR]-NH2 [SEQ ID NO. 25: NH2-Tyr-Sar-(4-Cl)Phe-Leu-Arg-DArg-Ile-DArg-NH2] | 1610
6 | H-Y[Sar][Phe(4-Cl)]LR[dR]-{C7H14‑CONH2} [SEQ ID NO. 24: NH2-Tyr-Sar-(4-Cl)Phe-Leu-Arg-DArg-C7H14-CONH2] | > 10000
7 | H-Y[Sar]FLR[dR]-NH2 [SEQ ID NO. 3: NH2-Tyr-Sar-Phe-Leu-Arg-DArg-NH2] | > 10000

These binders were tested against Delta opioid receptor (DOR) (assay: cell-based or functional assay).

Row | Binder | Activity (EC50, nM), cAMP assay [nM]
8 | H-Y[Sar][Phe(4-NO2)]LR[dR]-NH2 [SEQ ID NO. 4: NH2-Tyr-Sar-(4-NO2)Phe-Leu-Arg-DArg-NH2] | > 10000
9 | H-Y[Sar][Phe(4-Cl)]LR[dR]IR-NH2 [SEQ ID NO. 20: NH2-Tyr-Sar-(4-Cl)Phe-Leu-Arg-DArg-Ile-Arg-NH2] | 3580
10 | B1 | > 10000
11 | H-Y[Sar][Phe(4-Cl)]LR[dR]I[dR]-NH2 [SEQ ID NO. 25: NH2-Tyr-Sar-(4-Cl)Phe-Leu-Arg-DArg-Ile-DArg-NH2] | > 10000
12 | H-Y[Sar][Phe(4-Cl)]LR[dR]-{C7H14‑CONH2} [SEQ ID NO. 24: NH2-Tyr-Sar-(4-Cl)Phe-Leu-Arg-DArg-C7H14-CONH2] | > 10000
13 | H-Y[Sar]FLR[dR]-NH2 [SEQ ID NO. 3: NH2-Tyr-Sar-Phe-Leu-Arg-DArg-NH2] | > 10000

Target: T1, Kappa opioid receptor (KOR)
Assay: cell-based or functional assay
Remark: another data set of the same source

Row | Binder | cAMP assay (ALPHAScreen), result at 1 µM peptide | cAMP assay (ALPHAScreen), result at 10 µM peptide
14 | B2 | 4.23 | 22.9
15 | H-Y[Sar]FL[dR][dR]-NH2 [SEQ ID NO. 7: NH2-Tyr-Sar-Phe-Leu-DArg-DArg-NH2] | 18.3 | 36
16 | H-Y[Sar][Phe(4-NO2)]L[dR]R-NH2 [SEQ ID NO. 5: NH2-Tyr-Sar-(4-NO2)Phe-Leu-DArg-Arg-NH2] | 33.4 | 43.1
17 | B3 | 2.46 | 23.1
18 | H-Y[Sar]FL[dR]R-NH2 [SEQ ID NO. 6: NH2-Tyr-Sar-Phe-Leu-DArg-Arg-NH2] | 14.2 | 35.1
19 | H-Y[Sar]FLR[dR]-NH2 [SEQ ID NO. 3: NH2-Tyr-Sar-Phe-Leu-Arg-DArg-NH2] | 27.2 | 43.6
20 | H-Y[Sar][Phe(4-NO2)]L[dK][dR]-NH2 [SEQ ID NO. 10: NH2-Tyr-Sar-(4-NO2)Phe-Leu-DLys-DArg-NH2] | 8.47 | 25.1

Target: Mu opioid receptor (MOR)
Assay: cell-based or functional assay
Remark: another data set of the same source

Row | Binder | cAMP assay (ALPHAScreen), result at 1 µM peptide | cAMP assay (ALPHAScreen), result at 10 µM peptide
21 | H-Y[Sar][Phe(4-NO2)]LR[dR]-NH2 [SEQ ID NO. 4: NH2-Tyr-Sar-(4-NO2)Phe-Leu-Arg-DArg-NH2] | 0.17 | 2.52
22 | B2 | -6.78 | 7.28
23 | H-Y[Sar]FL[dR][dR]-NH2 [SEQ ID NO. 7: NH2-Tyr-Sar-Phe-Leu-DArg-DArg-NH2] | 0.13 | 4.19
24 | H-Y[Sar][Phe(4-NO2)]L[dR]R-NH2 [SEQ ID NO. 5: NH2-Tyr-Sar-(4-NO2)Phe-Leu-DArg-Arg-NH2] | -0.05 | 4.32
25 | B3 | -0.97 | -0.64
26 | H-Y[Sar]FL[dR]R-NH2 [SEQ ID NO. 6: NH2-Tyr-Sar-Phe-Leu-DArg-Arg-NH2] | 1.04 | 7.84
27 | H-Y[Sar]FLR[dR]-NH2 [SEQ ID NO. 3: NH2-Tyr-Sar-Phe-Leu-Arg-DArg-NH2] | -0.68 | 2.17
28 | H-Y[Sar][Phe(4-NO2)]L[dK][dR]-NH2 [SEQ ID NO. 10: NH2-Tyr-Sar-(4-NO2)Phe-Leu-DLys-DArg-NH2] | -1.27 | 0.02

Target: Delta opioid receptor (DOR)
Assay: cell-based or functional assay
Remark: another data set of the same source

Row | Binder | cAMP assay (ALPHAScreen), result at 1 µM peptide | cAMP assay (ALPHAScreen), result at 10 µM peptide
29 | H-Y[Sar][Phe(4-NO2)]LR[dR]-NH2 [SEQ ID NO. 4: NH2-Tyr-Sar-(4-NO2)Phe-Leu-Arg-DArg-NH2] | -0.75 | 2.04
30 | B2 | 2.57 | 19.6
31 | H-Y[Sar]FL[dR][dR]-NH2 [SEQ ID NO. 7: NH2-Tyr-Sar-Phe-Leu-DArg-DArg-NH2] | -0.68 | 2.53
32 | H-Y[Sar][Phe(4-NO2)]L[dR]R-NH2 [SEQ ID NO. 5: NH2-Tyr-Sar-(4-NO2)Phe-Leu-DArg-Arg-NH2] | 0.05 | 2.02
33 | B3 | -0.5 | 1.83
34 | H-Y[Sar]FL[dR]R-NH2 [SEQ ID NO. 6: NH2-Tyr-Sar-Phe-Leu-DArg-Arg-NH2] | -0.03 | 2.25
35 | H-Y[Sar]FLR[dR]-NH2 [SEQ ID NO. 3: NH2-Tyr-Sar-Phe-Leu-Arg-DArg-NH2] | -2.27 | 2.24
36 | H-Y[Sar][Phe(4-NO2)]L[dK][dR]-NH2 [SEQ ID NO. 10: NH2-Tyr-Sar-(4-NO2)Phe-Leu-DLys-DArg-NH2] | -3 | -0.95
